In patent publication USRE44359 (Hoffmann-La Roche Inc, dated 2013):

Molecular target: T1, Recombinant P-selectin (R&D Systems) (human, UniProt P16109 42-771)
T1 construct: extracellular domain; also called recombinant human P-selectin; recombinant truncated form of P-selectin
T1 sequence (looked up): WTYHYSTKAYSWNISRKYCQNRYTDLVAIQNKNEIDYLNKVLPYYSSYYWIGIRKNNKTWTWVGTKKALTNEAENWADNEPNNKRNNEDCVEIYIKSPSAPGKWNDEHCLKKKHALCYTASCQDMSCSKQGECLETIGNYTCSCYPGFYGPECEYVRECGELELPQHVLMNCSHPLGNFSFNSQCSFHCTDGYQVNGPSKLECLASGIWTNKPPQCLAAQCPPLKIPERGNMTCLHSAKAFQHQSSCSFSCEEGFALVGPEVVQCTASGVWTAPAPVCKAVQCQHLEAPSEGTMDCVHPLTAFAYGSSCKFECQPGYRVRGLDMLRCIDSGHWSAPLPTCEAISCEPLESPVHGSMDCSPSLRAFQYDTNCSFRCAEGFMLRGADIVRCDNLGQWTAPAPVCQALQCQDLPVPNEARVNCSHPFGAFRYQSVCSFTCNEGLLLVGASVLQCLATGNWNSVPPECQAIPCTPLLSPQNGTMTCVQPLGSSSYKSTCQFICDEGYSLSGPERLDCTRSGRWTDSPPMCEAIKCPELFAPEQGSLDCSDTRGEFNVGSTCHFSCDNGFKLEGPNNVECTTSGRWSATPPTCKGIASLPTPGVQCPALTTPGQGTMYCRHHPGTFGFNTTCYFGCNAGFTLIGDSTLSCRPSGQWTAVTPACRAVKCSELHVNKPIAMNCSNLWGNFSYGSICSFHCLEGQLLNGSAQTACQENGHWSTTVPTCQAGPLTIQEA
Assay: SPR, BIACORE 2000; antibody captured by anti-human Fcγ on CM5, recombinant P-selectin 0-50 nM as analyte; 1:1 Langmuir fit

B1: HuMab 017 (antibody, V domains shown)
VH: QPQLVQSGAEVKKPGASVKVSCKVSGNTLTELSMHWVRQAPGKGLEWMGGFDPENGEAIYAQKFQGRVTMTADTSTDTAYMDLSSLRSEDTAVYYCATDLAGGSDFYYYGLDVWGQGTTVTVSS
VL: AIQLTQSPSSLSASVGDRVTITCRASQGISSALAWYQQKPGKAPKLLIYDASSLESGVPSRFSGSGSGTDFTLTISSLQPEDFATYYCQQFNSYPYTFGQGTKLEIK
notes: Human monoclonal antibody; kappa light and gamma1 heavy chains by the cloning section; also called antibody 017; LC 1004-017
**Q.** B1 was tested. Which Ka did it give?
**A.** 5.59e+09 M⁻¹
